Assay: yeast display, Sf9 membrane polyspecificity reagent, FACS + sequencing; frameworks hold sequencing errors
Summary of the method: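 Genes from sorted yeast were amplified by colony PCR, read by MiSeq 2 × 250 sequencing and filtered on CDR length. These cells carried a synthetic nanobody library in Saccharomyces cerevisiae BJ5465 and were sorted by FACS into low and high (top ~1%) gates on anti-HA and streptavidin fluorescence. Polyreactivity is labelled according to the gate of origin.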

Row | Sequence | polyreactivity (PSR sort gate)
1 | QVQLVESGGGLVQAGGSLRLSCADSGRTFYGNAMGWYRQAPGKERELVAAISISGGSTYYADSVKGRFTISRDNAKNTVYIQMNSLKPEDTAVYYCNAQEYYYYPYVYDSDYWGQGTQVTVSS | low polyreactivity
2 | QVQLVESGGGLVQAGGSLRLSCAASGSIFDVNTMGWYRQAPGKERELVASITSSGSTYYADSVKGRFTISRDNAKNTVYLQMNSLKPEDTAVYYCAAASGGTVVGEGDYWGQGSQVTVSS | low polyreactivity
3 | QLQLQESGGGLVQGGGSLRLSCAASGSIYRSWYMGWYRQAPGKERELVASMTEGATTNYAYSVKAALPLAAITRNPVYLQMDSMKPEDTAVYYRAASFGSTYDLVYWGKGTQVTVSS | high polyreactivity
4 | QVQLVESGGGLVQAGGSLRLSCAASGRIFILNTMGWYRQAPGKERELVAGISYSGSTYYADSVKGRFTISRDNAKNTVYLQMNSMKPEDTAVYYCAADYDAAWYNDGYYYWGQGTQVTVSS | low polyreactivity
5 | QVQLVESGGGLVQAGGSLRLSCAASGRIFVRYDRGWYRQAPGKERELVAAISSSDGSTYYADSVKGRFTISRDNAKNTVYLQMNSLKPEDTAVYYCNADVSLDDYDYWGQGTQVTVSS | low polyreactivity
6 | QVQLVESGGGLVQGGGSLRLSCAASGFTFYYNAMGSYRQAPGKERELVADITSGGDTYYADSVKGRFTISRDNAKNTVYLQRNSLKPEDTAVYYCAAELWGLFDYWGQGTEVTVSS | low polyreactivity
7 | QVQLVESGGGLFQAGGSLRLSCAASGRIFGDNGMGWYRQAPGKERELVTYADSVKGRFTISRDNAKNTVYLQMNSLKPEDTAVYYCNKDPPRLSGLDENYWGQGTQVTVSS | low polyreactivity
8 | QVQLVESGGGLVQAGGSLRLSCAASGSIFTYNAMGWYRQAPGKERELVASISSGGITNYADSVKGRFTISRDNAKNTVYLQMNSLKPEDTAVYYCATEYLYVDFFIRYDYWGQGTQVTVSS | low polyreactivity
9 | QVQLEESGGGIVQAGGSLRLRCAAAGRSVYYYAMAWYRQAPGKEREFVADITARGGSTYYADSVKGRFTISRDNAKNSVYLQMNSLKPEDTAVYYCAAYIYVTYYYWGQGTQVTVSS | high polyreactivity
10 | QVQLVESGGGLVQAGGSLRLSCAASGRTSSANVMGGYRQAPGKDRELVAAISWSGGSTYYADSVKGRFTISRDNAKNTVYLQMNSRKPEDTAVYYCAADYYKYYYGGDQLSITRYDYWGQGTQVTVSS | low polyreactivity
11 | QVQLVESGGGLVQAGGSLRLSCAASGSTFPDYAMGWYRQAPGKDRELVAAISGDSDDTYYADSVKGRFTISRDNAKNTVYLQMNSLKPEDTAVYYCAARRGRAVYSVAYDYWGQGTQVTVSS | high polyreactivity
12 | QVQLVESGGGLVQAGGSLRLSCAASGSIIGFNGMGWYRQAPGKERELVSAISSTGGSTYYADSVKGRFTISRDNAKNTVYLQMNSLKPEDTAVYICNTDYSKTIGDGYAGFDYWGQGTQGTVSS | low polyreactivity
13 | QVQLVESGGGLVQAGGSLRLSCAASGRTFFRYAMGWYRQAPGKERELVADISKGGGSTYYADSVKGRFTISRDNAKNTVYLQMNSLKPEDTAVYYCAADQYYERDNFGAERYYWGQGTQVTVSS | high polyreactivity
14 | QVQLVESGGGLVQAGGSLRLSCAASGSTLPFNAMGCYRQAPGKERELVAAISSGSSTNYADSVKGRFTISRDNAKNTVYLKMNSLKPEDTAVYYCNARPRANQLGDYYKPGTYDYWGQGTQVTVSS | low polyreactivity
15 | QVQLVESGGGLVQAGGSLRLSCAASGFIFYYYAMGWYRQAPGKERELVAAITGSGGNTYYADSVKGRFTISRDYAKNTVYFQMNSLKPEDTAFYYCNTGYDWGGDYWGQGTQVTVSS | high polyreactivity
16 | QVQLVESGGGLVQAGGSLRLSCAASGLTFPLYAMGWYRQAPGKEREFVAAITVSGVSTSYADSVKGRFTISRDNAKNTVYLQMNSLKPEDTAVYYCAADYYIWTYWDVYYWGQGTQVTVSS | high polyreactivity
17 | QVHLVESGGGLVQAGGSLRLICAASGRIFTKYAMGCYRQAPGKEREVVAAISYRGGSTYYADSVKGRFTISRDNAKNTVYLQMNILKPEDTAVYYCAAYATSTRYCYWGQGTQVTVSS | high polyreactivity
18 | QVQLVESGGGLVQAGGSLRLSCAASGRIFYRYVMGWYRQAPGKERELVAAITSSGGSTYYADSVKGRFTISRDNAKNTVYLQMNSLKPEDTAVYYCAADRYTRYRYNYWGQGTQVTVSS | high polyreactivity
19 | QVQLVESGGGLVQAGGSLRLSCAASGGTFKPNVMGWYRQAPGKERELVAAITSGGSTYYADSVKGRFTMSRDNAKNTVYLQMNSLKPEDTAVYYCAATSLRRYGYNYWGQGTQVTVSS | high polyreactivity
20 | QVQLVDSGGGLVQAGGSLRLSCASSGSTTVLYAKGWYRQAPGKEREMVAAISRSGGSTYYADSVKGRFTISRDNAKYTVYLQMNSLKPEDTAVYYCAARVPFSPYLRLFDYWGQGTQVTVSS | low polyreactivity
21 | QVQLVESGGGLFQAGGSLRVSSAPSGITFYGYAMGWYRQAPGKERELVAAINRGGTGTYYADSVKGRFTISRYNAKNTVYLQMNSLTPEDTAVYYCNKAGYPLADPTAGKRQFDDWGQGTEVTVSS | low polyreactivity
22 | QVQLVESGGGLVQAGGSLRLSCAASGRIFGQYAMGWYRQAPGKDRELVAAISWRGGTTYYADSVKGRFTISRDNAKNTVYLQMNSLKPEDTAVYYCNADVWVYPYDYWGQGTQVTVSS | low polyreactivity

Row | Sequence | polyreactivity (PSR sort gate)
23 | QVQLVESGGGLVQAGGSLRLSCAASGRILAINVMGWYRQAPGKERELVAAITLSSGSTYYADSVKGRFTMSRDNAKNTVYFQMNSLKPEDTAVYYCAADVYSGLSEGYYWGQGTQVTVSS | low polyreactivity
24 | QVQLVESGGGLVQAGGSLRLSCAASGRIFTIYAMGWYRQEPGKERELVAAITRGGNTNYADSVKGRFTISRDNAKNTVYLLMNSLKPEDTAVYYCAARANVYTKKRDYWGQGTQVTVSS | high polyreactivity
25 | QVQLVESGGGLVQAGGSLRLSCAASGRTFGTYAMGWYRQAPGKERELVAVITNGGGTYYADSVKGRFTISRDNAKNTVYLQMNSLKPEDTAVYYCNTDRYGLRRWVYSYWGGYDYWGQGTQVTVSS | low polyreactivity
26 | QVQLVESGGGLDQAGGSLRLSCAASGSTSAYYVMGWYRQAPGKERELVAAIDFSGDSTYYADSVKGRFTISRDNAKNTVYLQMISLKPEDSAVYYCAAELFFYSSLVTYEYWGQGTQVTVSS | high polyreactivity
27 | QVQLVESGGGLVQAGGSLRISCAASGRICIYYTMGWYRQAPGKDREFVAAITYSGGSTRYADSVKGRFTISRDNAKNTVYFQMNSLKTEVTAVYYCAAKFSVRRGFDYWGQGTQVTVSS | low polyreactivity
28 | QVQLVESGGGLVQAGGSLRLSSAASGLIYPVYAMGWYRQAPGKEREFVASIWRGGTTYYADSVKGRFTISRDNAKNTVYLQMTSLKPEDTAVYYCASRYYPRGLVFPFTKYDYWGLGTQVTVSS | high polyreactivity
29 | QVQLVESGGGLVQAGGSLRLSCAASGSIFYRNTMGWYRQAPGKERELVAAITTSGGSTYYADSVKGRFTISRDNAKNTVYLQMNSLKPEDTAVYYCAARTWERWYRYYYWGQGTQVTVSS | high polyreactivity
30 | QVQLVESGGGLVQAGGSLRLSCAASGSIFKYYAMGWYRQAPGKERELVAAISSSGNTYYADSVKGRFTISRDNAKNTVYLQMNSLKPEDTAVYYCNAYRPGEMDYWGQGTQVTVSS | high polyreactivity
31 | QVQLVESGGGLVQAGGSLRLSCAASGITFYDYAMGWYRQAPGKERELVAAISDSGGITYYADSVKGRFTISRDNAKNTVYLQMNSLKPEDTAVYYCNAKSVRRERYKFDYWGQGTQVTVSS | high polyreactivity
32 | QVQLVESGGGLVQAGGSLRLSCAASGSIFYYAMGWYRQAPWKERELVADISTGGSTHYADSVKGRFTISRDNAKNTVYLQMNSLKPEDTAVYYCAKEAWRYRLNFRYNYWGQGTQVTVSS | low polyreactivity
33 | QVQLQESGGGMVQAGVSLRLSCAASGTISNAPHMGWYRQAPAKERELVAGITIGGTTYYADSVKGRFTISRDNAKNTVYLQMNSLSPGVTAVYDCAAHSEQYTPFYYWGQGTQVTVSS | low polyreactivity
34 | QVQLVESGGGLVQAGGSLRLSCAASGITFYVYALRWYRQAPGKERELVASISWIGGRTYYADSVKGRFTISRDNAKNTVYVQMNSLKPEDTAVYYCAARAYSYWSGLDYWGQGTQVTVSS | high polyreactivity
35 | QVQLVESGGGLVQAGGSLRLSSAASGIIFRRYAMGWYRQAPGKERELVAAMSWSGGSTYYADSVKGRFTISRDNAKNTVYLQMNSLKPEDTAVYYCAAAAYTRDEYDYWGQGTQVTVSS | high polyreactivity
36 | QVQLEESGGGLVQAGGSLRLSCAASGRTFRSYTMGWYRQAPGKERELGAAISYNGGSTYYADSVNGRFTISRDYAKNTVYLQMNSLKPEDTSVYYCAVYSIYGFYYWGQGTQVTVSS | high polyreactivity
37 | QVQLVESGGGLVQAGGSLRLSCAPSGSTFTINVMGWYRQAPGKERELVAAINGGGRTNYADSVKGRFTISRDNAKNTVYLQINSLIPEDTAVYYCAADGLSNVRQMDYWGQGTQVTVSS | low polyreactivity
38 | QVQLVESGGGLVQAGGSLRLSCAASGSTFSLYAMGWYRQAPGKERELVARISYTDGSTYYADSVKGRFTISRDNAKNTVYLPMNSLKPEDTAVYYCAADAWYSYTLEDSWGQGTQVTVSS | low polyreactivity
39 | QFHLVESGGGLVQAGGSLRLSCAASGITFGYYAMGWYRQAPGKERELVAAISGSASRTYYADTVKGRFTISRDNAKNTVYLQMNSLKQEDTAVYYCNARGGGTASCYYYWGPGTQVTVSS | high polyreactivity
40 | QVQLVESGGGLVQAGGSLRISCDASGSIFELNAMGWYRQAPGKERELVAAISSGSTYYADSVKGRFTITRDNAKNTVYLQMNSLKPVDTAVYYCAKRWRRRFVDVWSLYDYWGQCTQVTVSS | low polyreactivity
41 | QVQLVESGGGLVQAGGSLRLSCAASGNTFTVNAMGWYRQAPGKERELVAAINYSGGSTYYADSVKGRFTISRDNAKNTVYLQMNSLKPEDTAVYYCAASPDELLYEMYYWGQGTQVTVSS | low polyreactivity
42 | QVQLVESGGGLVQAGGSLRLSCAPPDLPSVVMLWDGIDRRLGKKGSSLPLLLLLVVSHADSVKGRFTISRDNAKNTVYLQMNSLKPDDTAVYYCAVAVLPWQLYSESYAEYDYWGQGTQVTVSS | low polyreactivity
43 | QVQLVESGGGLVQAGGSLRLSCAASGIILVAYAMGWYRPAPGKERELVAAITTSGTSTYYADSVKGRFTISRDNAKNTVYVQMNSLTPEDTAVYYCAVRQRYGPARYDYWGQGTQVTVSS | high polyreactivity
